Data reported in the supplement of paper PMC11196671.
± gives the standard deviation of the averaged measurements.

Legend:
[1] = BHET released, HPLC; higher = more BHET released; extreme values may be limits of the assay; conditions: 24 h
Procedure: (§1)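 Purified PET hydrolases, 2.5 ug enzyme on 3.5 mg amorphous PET film (aFilm) or crystalline PET powder (cryPow) in 0.5 mL of 50 mM buffer (NaCitrate pH 4.5/5.5, NaPhosphate 6.5/7.5, glycine 8.5/9.5) at 60 or 70 C with shaking for 24 h. Total aromatic product by UV-Vis (260/280 nm, blank-subtracted, normalised per mg enzyme) and individual TPA, MHET, BHET concentrations by UHPLC-DAD at 240 nm; duplicate reactions.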

[2] = MHET released, HPLC; higher = more MHET released; extreme values may be limits of the assay; conditions: 24 h
Procedure: as §1

[3] = PET hydrolysis product formed (TPA+MHET+BHET, UV-Vis) per mg enzyme (mmol/mg enzyme); higher = more PET depolymerisation activity; extreme values may be limits of the assay; conditions: 2 h
Procedure: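 Purified PET hydrolases (His-SUMO cleaved, E. coli C41(DE3) small-scale expression), 2.5 ug enzyme on 3.5 mg amorphous PET film (aFilm) or crystalline PET powder (cryPow) in 0.5 mL of 50 mM buffer (NaCitrate pH 4.5/5.5, NaPhosphate 6.5/7.5, glycine 8.5/9.5) at 60 or 70 C with shaking for 2 h. Soluble aromatic products (TPA+MHET+BHET) were quantified by UV-Vis at 260/280 nm, blank-subtracted against the no-enzyme control, and normalised per mg enzyme; duplicate reactions.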

[4] = as above; conditions: 24 h
Procedure: as §1

[5] = PET substrate: aFilm, 60 °C, pH 4.5
[6] = PET substrate: aFilm, 60 °C, pH 5.5
[7] = PET substrate: aFilm, 60 °C, pH 6.5
[8] = PET substrate: aFilm, 60 °C, pH 7.5
[9] = PET substrate: aFilm, 60 °C, pH 8.5
[10] = PET substrate: aFilm, 60 °C, pH 9.5
[11] = PET substrate: aFilm, 70 °C, pH 4.5
[12] = PET substrate: aFilm, 70 °C, pH 5.5
[13] = PET substrate: aFilm, 70 °C, pH 6.5
[14] = PET substrate: aFilm, 70 °C, pH 7.5
[15] = PET substrate: aFilm, 70 °C, pH 8.5
[16] = PET substrate: aFilm, 70 °C, pH 9.5
[17] = PET substrate: cryPow, 60 °C, pH 4.5
[18] = PET substrate: cryPow, 60 °C, pH 5.5
[19] = PET substrate: cryPow, 60 °C, pH 6.5
[20] = PET substrate: cryPow, 60 °C, pH 7.5
[21] = PET substrate: cryPow, 60 °C, pH 8.5
[22] = PET substrate: cryPow, 60 °C, pH 9.5
[23] = PET substrate: cryPow, 70 °C, pH 4.5
[24] = PET substrate: cryPow, 70 °C, pH 5.5
[25] = PET substrate: cryPow, 70 °C, pH 6.5
[26] = PET substrate: cryPow, 70 °C, pH 7.5
[27] = PET substrate: cryPow, 70 °C, pH 8.5
[28] = PET substrate: cryPow, 70 °C, pH 9.5

In the case of “SNPYQRGPNPTRSALTADGPFSVRTYTISRLSVSGFGGGVIYYPTGTSLTFGGIAMSPGYTADASSLAWLGRRLASHGFVVLVINTNSRFDGPDSRASQLSAALNYLRTSSPSAVRARLDANRLAVAGHSMGGGGTLRIAEQNPSLKAAVPLTPWHTDKTFNTSVPVLIVGAEADTVAPVSQHAIPFYQNLPSTTPKVYVELCNASHIAPNSPNAAISVYTISWMKLWVDNDTRYRQFLCNVNDPALCDFRTNNRHCQ [LCC-ICCG RIP]”, the BHET released [1, 5] is reported as 0.00297 ± 0.0042 mM, the BHET released [1, 6] is reported as 0.00225 ± 0.0032 mM and the BHET released [1, 7] is reported as 0 mM. For the same sequence, the BHET released [1, 8] was 0.0189 ± 0.027 mM, the BHET released [1, 9] was 0.00205 ± 0.0029 mM and the BHET released [1, 10] was 0.0202 ± 0.029 mM. It also gave a BHET released [1, 11] of 0 mM, a BHET released [1, 12] of 0.00382 ± 0.0054 mM and a BHET released [1, 13] of 0 mM. It also gave a BHET released [1, 14] of 0.0465 ± 0.015 mM, a BHET released [1, 15] of 0 mM and a BHET released [1, 16] of 0 mM. The BHET released [1, 17] was 0.00464 ± 0.0066 mM, the BHET released [1, 18] was 0 mM and the BHET released [1, 19] was 0 mM. The BHET released [1, 20] was 0 mM, the BHET released [1, 21] was 0 mM and the BHET released [1, 22] was 0 mM. The BHET released [1, 23] was 0 mM, the BHET released [1, 24] was 0.00217 ± 0.0031 mM and the BHET released [1, 25] was 0 mM. For the same sequence, the BHET released [1, 26] was 0 mM, the BHET released [1, 27] was 0 mM and the BHET released [1, 28] was 0 mM. The MHET released [2, 5] was 0.0627 ± 0.036 mM, the MHET released [2, 6] was 0.19 ± 0.029 mM and the MHET released [2, 7] was 0.477 ± 0.12 mM. The MHET released [2, 8] was 1.93 ± 0.73 mM, the MHET released [2, 9] was 0.309 ± 0.017 mM and the MHET released [2, 10] was 1.34 ± 0.86 mM. For the same sequence, the MHET released [2, 11] was 0.00485 ± 0.0069 mM, the MHET released [2, 12] was 0.23 ± 0.039 mM and the MHET released [2, 13] was 0.352 ± 0.0081 mM. For the same sequence, the MHET released [2, 14] was 2.36 ± 0.12 mM, the MHET released [2, 15] was 0.217 ± 0.02 mM and the MHET released [2, 16] was 0.896 ± 0.27 mM. It also gave an MHET released [2, 17] of 0.0685 ± 0.0031 mM, an MHET released [2, 18] of 0.1986 ± 0.00074 mM and an MHET released [2, 19] of 0.257 ± 0.023 mM. It also gave an MHET released [2, 20] of 0.292 ± 0.032 mM, an MHET released [2, 21] of 0.186 ± 0.073 mM and an MHET released [2, 22] of 0.0905 ± 0.035 mM. For the same sequence, the MHET released [2, 23] was 0.0111 ± 0.0025 mM, the MHET released [2, 24] was 0.10965 ± 4.2e-05 mM and the MHET released [2, 25] was 0.2013 ± 0.0014 mM. The MHET released [2, 26] was 0.367 ± 0.066 mM, the MHET released [2, 27] was 0.164 ± 0.013 mM and the MHET released [2, 28] was 0.0678 ± 0.0021 mM. For the same sequence, the “PET hydrolysis product formed” value [3, 5] was 0, the “PET hydrolysis product formed” value [3, 6] was 0.0147 ± 0.0032 and the “PET hydrolysis product formed” value [3, 7] was 0.0276 ± 0.011. For the same sequence, the “PET hydrolysis product formed” value [3, 8] was 0.0697 ± 0.0075, the “PET hydrolysis product formed” value [3, 9] was 0.0326 ± 0.014 and the “PET hydrolysis product formed” value [3, 10] was 0.0672 ± 0.0077. For the same sequence, the “PET hydrolysis product formed” value [3, 11] was 0, the “PET hydrolysis product formed” value [3, 12] was 0.0525 ± 0.025 and the “PET hydrolysis product formed” value [3, 13] was 0.0606 ± 0.0062. For the same sequence, the “PET hydrolysis product formed” value [3, 14] was 0.151 ± 0.029, the “PET hydrolysis product formed” value [3, 15] was 0.0612 ± 0.0035 and the “PET hydrolysis product formed” value [3, 16] was 0.175 ± 0.028. The “PET hydrolysis product formed” value [3, 17] was 0.011 ± 0.0027, the “PET hydrolysis product formed” value [3, 18] was 0.0235 ± 0.0071 and the “PET hydrolysis product formed” value [3, 19] was 0.0304 ± 0.0038. The “PET hydrolysis product formed” value [3, 20] was 0.0711 ± 0.032, the “PET hydrolysis product formed” value [3, 21] was 0.0405 ± 0.033 and the “PET hydrolysis product formed” value [3, 22] was 0.0143 ± 0.0041. For the same sequence, the “PET hydrolysis product formed” value [3, 23] was 0, the “PET hydrolysis product formed” value [3, 24] was 0.0166 ± 0.0036 and the “PET hydrolysis product formed” value [3, 25] was 0.0257 ± 0.0033. The “PET hydrolysis product formed” value [3, 26] was 0.045 ± 0.0019, the “PET hydrolysis product formed” value [3, 27] was 0.0206 ± 0.0016 and the “PET hydrolysis product formed” value [3, 28] was 0.0257 ± 0.0029. For the same sequence, the “PET hydrolysis product formed” value [4, 5] was 0.029 ± 0.018, the “PET hydrolysis product formed” value [4, 6] was 0.0802 ± 0.0094 and the “PET hydrolysis product formed” value [4, 7] was 0.202 ± 0.029. The “PET hydrolysis product formed” value [4, 8] was 0.775 ± 0.2, the “PET hydrolysis product formed” value [4, 9] was 0.127 ± 0.0045 and the “PET hydrolysis product formed” value [4, 10] was 0.684 ± 0.33. For the same sequence, the “PET hydrolysis product formed” value [4, 11] was 0, the “PET hydrolysis product formed” value [4, 12] was 0.103 ± 0.02 and the “PET hydrolysis product formed” value [4, 13] was 0.181 ± 0.01. For the same sequence, the “PET hydrolysis product formed” value [4, 14] was 1.26 ± 0.084, the “PET hydrolysis product formed” value [4, 15] was 0.1 ± 0.01 and the “PET hydrolysis product formed” value [4, 16] was 0.65 ± 0.11. For the same sequence, the “PET hydrolysis product formed” value [4, 17] was 0.0235 ± 0.002, the “PET hydrolysis product formed” value [4, 18] was 0.0628 ± 0.0065 and the “PET hydrolysis product formed” value [4, 19] was 0.082 ± 0.00092. For the same sequence, the “PET hydrolysis product formed” value [4, 20] was 0.113 ± 0.0013, the “PET hydrolysis product formed” value [4, 21] was 0.0714 ± 0.033 and the “PET hydrolysis product formed” value [4, 22] was 0.0784 ± 0.011. For the same sequence, the “PET hydrolysis product formed” value [4, 23] was 0, the “PET hydrolysis product formed” value [4, 24] was 0.0369 ± 0.0017 and the “PET hydrolysis product formed” value [4, 25] was 0.0809 ± 0.0019. For the same sequence, the “PET hydrolysis product formed” value [4, 26] was 0.162 ± 0.034, the “PET hydrolysis product formed” value [4, 27] was 0.0631 ± 0.0059 and the “PET hydrolysis product formed” value [4, 28] was 0.0938 ± 0.0042.
